Kd data for one molecule are collected here from doi:10.1101/2021.04.24.441265.

The data set addresses C/EBPβ bZIP domain (mouse, UniProt P28033 221-296). The data set can be described thus: fluorescence polarization. Background: In fluorescence polarisation assays a small probe gives low polarisation when free and higher when bound to something large.

Chain of C/EBPβ bZIP domain (P28033 221-296): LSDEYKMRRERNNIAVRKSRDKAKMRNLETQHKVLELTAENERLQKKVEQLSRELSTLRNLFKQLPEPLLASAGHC

B1: FP_CREBmeth (half-CRE•C/EBP Il36A, methylated) (dsDNA)
DNA 1: CATCTTACGTCACCT
DNA 2: AGGTGACGTAAGATG
modifications: mC at strand 1 position 8 and strand 2 position 7 (CpG, both strands)
Turning to B1, binding was put at a Kd of 100 ± 30 nM.

In general, Kd refers to a measure of binding affinity in units of concentration. A lower Kd goes with tighter binding.
